Measurements published in the supplement of paper PMC10567573.

B1: HESX1 (parent)
chain: QKKDCVPLMKPHRPWADTCSSSGK
B2: ESRRA (parent)
chain: SLPLQDELAFAEDLVLDEEGARAA

Variants of: B1
Assay: protein stability index of a GFP-peptide fusion (GPS, HEK-293T) (PSI 1-6); higher = more stable
Settings: c terminus: a fixed tail appended
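Note: lentivirally expressed fusions sorted by FACS into six bins by GFP to DsRed ratio, PSI derived from sequencing read proportions per bin multiplied by bin number.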

Variant	protein stability index
S20E	3.47
S20V	3.84
S20Q	3.05
S20L	2.61
S20P	3.79
S20A	3.71
S20F	2.3
S20K	3.83
S20T	2.96
S20I	2.98
S20Y	2.31
S20M	3.18
S20H	3.24
S20R	3
S20D	3.32
S20G	2.38
S20W	2.74
S20N	3.33
S20C	3.03
P14W	2.96
P14F	3.1
P14K	2.81
P14Q	3.88
P14D	3.21

Variant	protein stability index
P14A	2.52
P14N	2.72
P14C	2.36
P14G	3.96
P14I	3.26
P14E	4.12
P14Y	2.98
P14S	3.1
P14H	3.95
P14V	2.23
P14M	2.84
P14L	3.06
K24N	2.97
K24G	3.62
K24I	2.51
K24P	3.18
K24C	3.33
K24V	2.55
K24S	2.23
K24W	1.98
K24L	1.78
K24Y	1.98
K24Q	3.57
K24E	2.28

Variant	protein stability index
K24D	3.22
K24H	2.46
K24F	2.56
K24T	2.85
K24A	3.7
K24M	2.05
R13E	4.97
R13I	3.66
R13F	3.75
R13Y	3.64
R13T	3.33
R13K	3.5
R13W	3.4
R13N	4.15
R13P	3.25
R13L	3.4
R13M	3.06
R13G	4.21
R13H	3.6
R13V	3.11
R13Q	4.18
S21Y	2.32
S21I	2.69
S21P	3.58

Variant	protein stability index
S21W	2.79
S21M	2.58
S21Q	3.75
S21H	2.88
S21F	2.44
S21A	3.61
S21G	3.92
S21D	3.24
S21V	3.15
S21T	3.38
S21N	3.4
S21R	2.56
S21L	3.18
S21E	3.86
S21C	2.92
S21K	3.68
T18S	3.28
T18D	3.96
T18P	4.02
T18E	4.29
T18G	3.69
T18A	3.41
T18V	1.9
T18H	2.13

Variant	protein stability index
T18Q	3.36
T18Y	2.25
T18L	2.24
T18C	3.15
T18R	2.69
T18M	2.44
T18N	3.75
T18F	2.35
T18I	1.57
T18W	2.94
T18K	4.01
D17H	3.71
D17M	3.36
D17R	3.46
D17N	3.22
D17G	3.45
D17S	3.74
D17Q	3.89
D17F	3.07
D17Y	3.17
D17I	2.57
D17T	3.06
D17A	3.48
D17C	2.81

Variant	protein stability index
D17K	3.91
D17V	2.91
D17P	3.6
D17W	2.78
D17E	3.53
W15M	4.57
W15H	4.64
W15S	4.8
W15Y	4.39
W15K	4.92
W15G	4.96
W15L	4.66
W15D	4.81
W15P	4.35
W15Q	4.79
W15F	3.47
W15A	4.62
W15I	4.26
W15N	4.79
W15E	5.37
W15C	4.02
W15T	5.26
G23K	4.08
G23Y	3.15

Variant	protein stability index
G23M	3.08
G23F	1.61
G23C	2.45
G23N	3.13
G23P	3.81
G23A	3.69
G23R	3.5
G23H	2.62
G23L	3.46
G23D	2.46
G23W	1.6
G23V	2.33
G23I	2.76
G23S	3.32
A16R	3.45
A16C	3.72
A16E	3.9
A16H	3.98
A16V	2.46
A16G	3.57
A16M	4.02
A16S	3.72
A16P	3.96
A16F	3.44

Variant	protein stability index
A16L	3.75
A16T	3.76
A16K	3.96
A16W	3.39
A16Q	4
A16I	3.34
A16D	4.66
A16N	4.2
A16Y	3.49
C19T	3.82
C19M	4.19
C19V	2.17
C19W	2.47
C19A	4.07
C19H	3.77
C19F	2.66
C19L	3.13
C19I	2.45
C19K	4.47
C19E	4.32
C19N	4.83
C19Y	3.25
C19D	3.9
C19R	4.08

Variant	protein stability index
C19Q	4.03
C19S	4.36
C19P	4.37
S22V	2.78
S22D	2.61
S22F	2.74
S22W	2.12
S22G	2.23
S22C	2.94
S22N	2.89
S22K	3.69
S22H	3.96
S22I	3.13
S22Y	3.29
S22T	3.08
S22A	2.95
S22R	3.3
S22E	3.13
S22P	3.68
S22M	3.43

Variants of: B2
Assay: as above
Settings: c terminus: a fixed tail appended

Variant	protein stability index
E7A	2.41
E7P	5.58
Q5D	5.44
Q5T	5.34
Q5W	2.29
Q5K	2.79
Q5M	2.48
Q5S	4.79
F10E	4.35
F10S	3.04
F10C	3.36
F10K	2.83
D17E	3.7
D17I	2.45
D17P	4.71
D17V	3.19
D17A	2.89
D17K	2.46
D17C	2.78
D17T	3.57
P3C	4.78
P3Y	4.61
P3N	4.08
P3E	4.97
P3F	4.6

Variant	protein stability index
L14C	3.46
L14Q	3.5
L14T	5.13
L14S	4.7
E12V	4.82
E12M	4.88
E12A	5
E12N	5.53
A9R	3.38
A9M	3.2
A9T	2.63
A9G	4.01
A9I	4.8
V15D	4.89
V15H	5.45
V15E	5.82
V15C	4.28
V15G	5.55
V15I	3.18
V15F	5.55
D13Y	2.64
D13F	3.31
D13K	3.81
D13G	2.44
D13C	2.31

Variant	protein stability index
D13Q	3.68
L4K	5.08
L4M	3.51
L4N	5.36
L4S	5.39
L4E	5.59
A23G	4.15
A23H	2.95
A23D	3.39
A23P	3.35
A23F	2.89
A23C	2.98
L2S	4.21
L2T	3.52
L2P	4.27
L2R	2.55
L2N	3.86
L2Y	3.22
D6R	2.65
D6K	2.81
D6P	4.04
A11H	5.54
A11W	3.02
A11K	4.98
A11Y	4.66

Variant	protein stability index
A11S	4.13
E18T	2.79
E18M	2.42
E18P	2.56
E18A	2.7
E18V	3.6
A24L	2.75
A24K	2.96
A24P	3.21
A24G	3.22
A24Y	3
A24W	2.74
R22S	3.62
R22H	3.65
R22W	2.53
R22M	3.42
R22K	3.12
R22A	3.35
E19V	2.83
E19I	1.74
E19L	2.15
E19A	1.86
E19P	4.02
E19W	2.52
L16S	4.91

Variant	protein stability index
L16Q	3.54
L16H	3.6
L16V	4.15
L16K	3.24
G20E	5.11
G20Q	3.93
G20S	4.04
G20F	3.47
L8V	5.84
L8K	5.45
L8C	5.51
L8Y	4.77
L8H	5.5
L8D	5.43
A21E	3.38
A21I	2.87
A21S	4.05
A21D	3.81
A21P	3.14
S1M	2.66
S1P	3.54
S1C	2.93
